Measurements: US20260234255A1 (Genmab, published 2026)

B1: bsG1-huCD3-FEALxCD30-T405-FEAR (bispecific antibody, human IgG1, kappa, lambda)
heavy 1: not shown
light 1: not shown
heavy 2: QVQLQQIGAELVRPGASVKLSCKASGYTFNNYWINWVKQRPGQGLEWIGNIYPSDSRSNYNQKFKDKATLTVDKPSSTAYMQLSSPTSEDSAVYYCTLGSYWGQGTLVTVSAASTKGPSVFPLAPSSKSTSGGTAALGCLVKDYFPEPVTVSWNSGALTSGVHTFPAVLQSSGLYSLSSVVTVPSSSLGTQTYICNVNHKPSNTKVDKRVEPKSCDKTHTCPPCPAPEFEGGPSVFLFPPKPKDTLMISRTPEVTCVVVAVSHEDPEVKFNWYVDGVEVHNAKTKPREEQYNSTYRVVSVLTVLHQDWLNGKEYKCKVSNKALPAPIEKTISKAKGQPREPQVYTLPPSREEMTKNQVSLTCLVKGFYPSDIAVEWESNGQPENNYKTTPPVLDSDGSFFLYSRLTVDKSRWQQGNVFSCSVMHEALHNHYTQKSLSLSPG
light 2: DVVMTQTPLTLSVTIGQPASISCKSSQSLSDSDGKTYLNWLLQRPGQSPKRLIYLVSKLDSGVPDRFTGSGSGTDFTLKISRVEAEDLGVYYCWQGAHFPRTFGGGTKLEIKRTVAAPSVFIFPPSDEQLKSGTASVVCLLNNFYPREAKVQWKVDNALQSGNSQESVTEQDSKDSTYSLSSTLTLSKADYEKHKVYACEVTHQGLSSPVTKSFNRGEC
notes: Bispecific IgG1 made by controlled Fab-arm exchange; also called bsIgG1-huCD3-FEALxCD30-T405-FEAR
B2: IgG1-CD30-HeFi-I-FEAR (antibody, V domains shown)
VH: EVKLVESGGGLVQPGGSLRLSCATSGFTFSDYYMNWVRQPPGKALEWLGFIRNKANGYTTEFSASVMGRFTISRDDSQSILYLQMNTLRAEDSATYYCARDPPYGNPHYYAMDYWGQGTSVTVSS
VL: DIVLTQSPASLAVSLGQRATISCRASKSVSASGYNYMHWYQQKAGQPPKLLIHLASNLESGVPARFSGSGSGTDFTLNIHPVEEEDASTYYCQHSGELPFTFGSGTKLEIKR
notes: Monospecific, bivalent parental antibody
B3: bsG1-huCD3-FEALxCD30-HeFi-I-FEAR (bispecific antibody, human IgG1, kappa, lambda)
heavy 1: not shown
light 1: not shown
heavy 2: EVKLVESGGGLVQPGGSLRLSCATSGFTFSDYYMNWVRQPPGKALEWLGFIRNKANGYTTEFSASVMGRFTISRDDSQSILYLQMNTLRAEDSATYYCARDPPYGNPHYYAMDYWGQGTSVTVSSASTKGPSVFPLAPSSKSTSGGTAALGCLVKDYFPEPVTVSWNSGALTSGVHTFPAVLQSSGLYSLSSVVTVPSSSLGTQTYICNVNHKPSNTKVDKRVEPKSCDKTHTCPPCPAPEFEGGPSVFLFPPKPKDTLMISRTPEVTCVVVAVSHEDPEVKFNWYVDGVEVHNAKTKPREEQYNSTYRVVSVLTVLHQDWLNGKEYKCKVSNKALPAPIEKTISKAKGQPREPQVYTLPPSREEMTKNQVSLTCLVKGFYPSDIAVEWESNGQPENNYKTTPPVLDSDGSFFLYSRLTVDKSRWQQGNVFSCSVMHEALHNHYTQKSLSLSPG
light 2: not shown
notes: Bispecific IgG1 made by controlled Fab-arm exchange; also called BsIgG1-huCD3-FEALxCD30-HeFi-I-FEAR
B4: bsG1-huCD3-FEALxCD30-HRS-3-FEAR (bispecific antibody, human IgG1, kappa, lambda)
heavy 1: not shown
light 1: not shown
heavy 2: QVQLQQSGAELARPGASVKMSCKASGYTFTTYTIHWVRQRPGHDLEWIGYINPSSGYSDYNQNFKGKTTLTADKSSNTAYMQLNSLTSEDSAVYYCARRADYGNYEYTWFAYWGQGTTVTVSSASTKGPSVFPLAPSSKSTSGGTAALGCLVKDYFPEPVTVSWNSGALTSGVHTFPAVLQSSGLYSLSSVVTVPSSSLGTQTYICNVNHKPSNTKVDKRVEPKSCDKTHTCPPCPAPEFEGGPSVFLFPPKPKDTLMISRTPEVTCVVVAVSHEDPEVKFNWYVDGVEVHNAKTKPREEQYNSTYRVVSVLTVLHQDWLNGKEYKCKVSNKALPAPIEKTISKAKGQPREPQVYTLPPSREEMTKNQVSLTCLVKGFYPSDIAVEWESNGQPENNYKTTPPVLDSDGSFFLYSRLTVDKSRWQQGNVFSCSVMHEALHNHYTQKSLSLSPG
light 2: DIVMTQSPKFMSTSVGDRVTVTCKASQNVGTNVAWFQQKPGQSPKVLIYSASYRYSGVPDRFTGSGSGTDFTLTISNVQSEDLAEYFCQQYHTYPLTFGGGTKLEINRTVAAPSVFIFPPSDEQLKSGTASVVCLLNNFYPREAKVQWKVDNALQSGNSQESVTEQDSKDSTYSLSSTLTLSKADYEKHKVYACEVTHQGLSSPVTKSFNRGEC
notes: Bispecific IgG1 made by controlled Fab-arm exchange
B5: bsG1-huCD3-FEALxCD30-T105-FEAR (bispecific antibody, human IgG1, kappa, lambda)
heavy 1: not shown
light 1: not shown
heavy 2: not shown
light 2: DIVMTQSQKFMSTSVGDRVSVTCKASQNVNTNVAWYQQKPGQSPEALIYSASYRYSGVPDRFTGSGSGTDFTLTISNVQSEDLAEYFCQQYNSYPLTFGSGTKLEIKRTVAAPSVFIFPPSDEQLKSGTASVVCLLNNFYPREAKVQWKVDNALQSGNSQESVTEQDSKDSTYSLSSTLTLSKADYEKHKVYACEVTHQGLSSPVTKSFNRGEC
notes: Bispecific IgG1 made by controlled Fab-arm exchange; also called bsIgG1-huCD3-FEALxCD30-T105-FEAR

How the values were obtained:
human CD30 [1] = biological target: T1, human CD30 (human, UniProt P28908 19-595); assay: cell-based or functional assay
T1 sequence: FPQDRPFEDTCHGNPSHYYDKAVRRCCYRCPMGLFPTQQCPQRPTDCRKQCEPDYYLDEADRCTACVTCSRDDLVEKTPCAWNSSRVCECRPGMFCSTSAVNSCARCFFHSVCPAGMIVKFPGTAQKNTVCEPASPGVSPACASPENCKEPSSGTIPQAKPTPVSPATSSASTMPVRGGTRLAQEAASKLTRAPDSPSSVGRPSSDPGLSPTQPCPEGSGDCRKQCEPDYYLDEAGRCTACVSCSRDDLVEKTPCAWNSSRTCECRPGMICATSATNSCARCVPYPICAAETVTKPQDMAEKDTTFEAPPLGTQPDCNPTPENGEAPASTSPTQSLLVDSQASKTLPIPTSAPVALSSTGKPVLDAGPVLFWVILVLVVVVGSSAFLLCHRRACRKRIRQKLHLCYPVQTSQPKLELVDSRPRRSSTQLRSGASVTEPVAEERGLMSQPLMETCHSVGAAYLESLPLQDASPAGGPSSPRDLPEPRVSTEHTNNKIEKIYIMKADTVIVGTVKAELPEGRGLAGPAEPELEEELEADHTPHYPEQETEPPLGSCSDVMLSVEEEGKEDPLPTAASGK

human CD30 [2] = biological target: T1, human CD30; assay: flow cytometry, HDLM-2 cells
Method: (§1) Binding of CD3×CD30 bispecific antibodies to two CD30-expressing human tumor cell lines SU-DHL-1 (ALCL; ATCC, cat. no. ACC 356) and HDLM-2 (HL; ATCC, cat. no. CRL-2965) was analyzed […] by flow cytometry.
(§2) Cells (3×10⁴ cells/well) were incubated in polystyrene 96-well round-bottom plates (Greiner bio-one, cat. no. 650180) with serial dilutions of antibodies (range 0.0046 to 10 μg/mL in 3-fold dilution steps) in 50 μL staining buffer at 4° C. for 30 min. After washing twice in staining buffer, cells were incubated with 50 μL secondary antibody at 4° C. for 30 min. […] Next, cells were washed twice in staining buffer, resuspended in 100 μL staining buffer supplemented with TO-PRO-3 iodide (Thermo Fisher Scientific; cat. no. T3605; 1:8000 dilution) and analyzed on a FACSCelesta flow cytometer (BD Biosciences, USA). Live cells were gated based on FSC/SSC and absence of TOPRO-3 staining. Binding curves were analyzed by non-linear regression of log-transformed data (sigmoidal dose-response with variable slope, four parameters) using GraphPad Prism V7.02 software (GraphPad Software, San Diego, CA, USA).

human CD30 [3] = biological target: T1, human CD30; assay: flow cytometry, Expi293F cells transfected with human CD30
Method: (§3) Cells (3×10⁴ cells/well) were incubated in polystyrene 96-well round-bottom plates (Greiner bio-one, cat. no. 650180) with serial dilutions of antibodies (ranging from 0.005 to 10 μg/mL in 3-fold dilution steps) in 100 μL staining buffer at 4° C. for 30 min. Experiments were performed in technical duplicate. After washing twice in staining buffer, cells were incubated in 50 μL secondary antibody at 4° C. for 30 min. As a secondary antibody, R-PE-conjugated goat-anti-human IgG (Jackson ImmunoResearch, UK; cat. no. 109⁻¹¹⁶-098) diluted 1:400 in staining buffer was used. Cells were washed twice in staining buffer, resuspended in 30 μL staining buffer containing 0.4% EDTA and analyzed on an iQue Screener (Intellicyt Corporation, USA). Binding curves were analyzed using non-linear regression (sigmoidal dose-response with variable slope) using GraphPad Prism V9.0.0 software (GraphPad Software, San Diego, CA, USA).

human CD30 [4] = biological target: T1, human CD30; assay: flow cytometry, SU-DHL-1 cells
Method: as §1, §2

[5] = biological target: T2, rhesus monkey (Macaca mulatta) CD30 (rhesus monkey, UniProt P28908 19-595 (human entry)); assay: flow cytometry, Expi293F cells transfected with rhesus monkey CD30
T2 construct: also called mmCD30
T2 chain: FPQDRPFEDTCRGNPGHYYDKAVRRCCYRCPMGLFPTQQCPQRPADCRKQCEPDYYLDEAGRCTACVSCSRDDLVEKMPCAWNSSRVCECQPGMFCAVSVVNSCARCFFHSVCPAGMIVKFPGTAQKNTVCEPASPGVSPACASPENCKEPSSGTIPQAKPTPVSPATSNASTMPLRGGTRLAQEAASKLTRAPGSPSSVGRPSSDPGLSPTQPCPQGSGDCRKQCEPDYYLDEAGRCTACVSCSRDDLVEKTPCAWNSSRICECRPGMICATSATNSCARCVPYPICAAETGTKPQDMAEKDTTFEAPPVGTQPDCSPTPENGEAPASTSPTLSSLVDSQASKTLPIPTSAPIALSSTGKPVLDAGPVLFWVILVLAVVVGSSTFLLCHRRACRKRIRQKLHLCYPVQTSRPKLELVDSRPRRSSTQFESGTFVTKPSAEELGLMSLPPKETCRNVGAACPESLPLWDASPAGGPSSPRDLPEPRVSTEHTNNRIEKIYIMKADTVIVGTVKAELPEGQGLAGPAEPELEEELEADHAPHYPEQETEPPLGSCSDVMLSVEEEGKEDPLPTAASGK
Method: as §3

| Binder | T-cell mediated cytotoxicity of Karpas-299 cells, IC50 average (human CD30 [1]) | T-cell mediated cytotoxicity of Karpas-299 cells, maximum lysis average (human CD30 [1]) | EC50 (read off the curve) (human CD30 [2]) | EC50 (read off the curve) (human CD30 [3]) | binding result (human CD30 [3]) | EC50 (read off the curve) (human CD30 [4]) | EC50 (read off the curve) [5] |
| --- | --- | --- | --- | --- | --- | --- | --- |
| B1 | 0.078 µg/mL | 41.7% | ~1 µg/mL | ~0.7 µg/mL | – | – | – |
| B2 | – | – | – | – | binds | – | – |
| B3 | 0.052 µg/mL | 43% | ~0.3 µg/mL | ~0.1 µg/mL | – | ~0.3 µg/mL | – |
| B4 | 0.068 µg/mL | 47.5% | ~0.1 µg/mL | – | – | ~0.2 µg/mL | ~0.3 µg/mL |
| B5 | 0.042 µg/mL | 52.6% | ~0.4 µg/mL | – | – | ~0.3 µg/mL | ~0.3 µg/mL |
